Series [1] deals with T1, Saccharomyces cerevisiae N-acetyltransferase Mpr1 variant F65L (phenylalanine 65 to leucine), SEQ ID NO:8 (Saccharomyces cerevisiae, UniProt E9P8D2, F65L).
T1 sequence (E9P8D2 1-229 F65L): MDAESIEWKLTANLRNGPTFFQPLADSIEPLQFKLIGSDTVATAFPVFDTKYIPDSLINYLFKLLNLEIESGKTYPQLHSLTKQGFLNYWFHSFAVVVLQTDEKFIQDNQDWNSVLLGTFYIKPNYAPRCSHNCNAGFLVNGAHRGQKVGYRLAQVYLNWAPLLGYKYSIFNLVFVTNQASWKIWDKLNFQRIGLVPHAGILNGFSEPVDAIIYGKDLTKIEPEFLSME
Kind of series: DTNB enzymatic activity (kinetics) of purified F65L mutant-type Mpr1. The following applies: vs wild-type. Format: biochemical. Here is the method: (§1) JM109 was inoculated in 5 ml of M9CA (CA:0.2%) medium and was cultured at. 37° C. until OD600 of the culture reached 0.7. IPTG was added to the medium to the final concentration of 0.1 mM and cells were further cultured at 18° C. for 18 hours. After the culture, cells were ice-cooled and were collected by centrifugation (8000 rpm, 5 min). Cells were washed by the addition of Lysis buffer. After centrifugation (8000 rpm, 5 min), 5 ml of Lysis buffer was added and cells were suspended therein. The suspension was subjected to ultrasonic disintegrator and was centrifuged (15000 rpm, 10 min). The supernatant was applied onto Ni-NTA column (2 ml of QIAGEN resin suspension) equilibrated with Lysis buffer. The flow-through fraction was collected and the column was washed with 10 ml of wash buffer and then fractions were collected. Further, fractions eluted with 5 ml of elution buffer were used as the purified enzyme.
(§2) Enzymatic activities were measured for the purified wild-type Mpr1 and the purified K63R, F65L/L117V, F65L and L117V-mutant-type Mpr1s. The enzymatic activities were measured according to 5,5′-dithiobis (2-nitrobenzoic acid) (DTNB) method.

Series [2] has as its target T2, Saccharomyces cerevisiae N-acetyltransferase Mpr1 variant K63R (lysine 63 to arginine), SEQ ID NO:7 (Saccharomyces cerevisiae, UniProt E9P8D2, K63R).
T2 sequence (E9P8D2 1-229 K63R): T1 sequence (E9P8D2 1-229 F65L) with K63R, L65F
Kind of series: DTNB enzymatic activity (kinetics) of purified K63R mutant-type Mpr1. The conditions noted are these: vs wild-type. In kind it is biochemical. The procedure: as §1, §2

Series [3] has as its target T3, Saccharomyces cerevisiae N-acetyltransferase Mpr1 variant L117V (leucine 117 to valine), SEQ ID NO:9 (Saccharomyces cerevisiae, UniProt E9P8D2, L117V).
T3 sequence (E9P8D2 1-229 L117V): T1 sequence (E9P8D2 1-229 F65L) with L65F, L117V
As to the kind of experiment: DTNB enzymatic activity (kinetics) of purified L117V mutant-type Mpr1. Format: biochemical. The following applies: vs wild-type. Here is the method: as §1, §2

Series [4] concerns the target T4, Saccharomyces cerevisiae N-acetyltransferase Mpr1, wild-type, SEQ ID NO:1 (Saccharomyces cerevisiae, UniProt E9P8D2).
T4 sequence (E9P8D2 1-229): T1 sequence (E9P8D2 1-229 F65L) with L65F
Kind of series: DTNB enzymatic activity (kinetics) of purified wild-type Mpr1. Format: biochemical. The following applies: 30° C., […]-0.15 mM acetyl-CoA. The procedure: as §1, §2

Substrate in series [5]: O=C(O)[C@@H]1CCN1
As to the kind of experiment: DTNB enzymatic activity (kinetics) of purified L117V mutant-type Mpr1. Format: biochemical, Saccharomyces cerevisiae. The following applies: other: L117V, 30° C., DTNB method, 0.5 mM-5 mM AZC.

Substrate in series [6]: CC(=O)SCCNC(=O)CCNC(=O)[C@H](O)C(C)(C)COP(=O)(O)OP(=O)(O)OC[C@H]1O[C@@H](n2cnc3c(N)ncnc32)[C@H](O)[C@@H]1OP(=O)(O)O
The series is described as above. The following applies: other: L117V, 30° C., DTNB method, […]-0.15 mM acetyl-CoA. Format: biochemical, Saccharomyces cerevisiae.

Substrate in series [7]: O=C(O)[C@@H]1CCN1
As to the kind of experiment: DTNB enzymatic activity (kinetics) of purified F65L mutant-type Mpr1. In kind it is biochemical, Saccharomyces cerevisiae. The conditions noted are these: other: F65L, 30° C., DTNB method, 0.5 mM-5 mM AZC.

Substrate in series [8]: CC(=O)SCCNC(=O)CCNC(=O)[C@H](O)C(C)(C)COP(=O)(O)OP(=O)(O)OC[C@H]1O[C@@H](n2cnc3c(N)ncnc32)[C@H](O)[C@@H]1OP(=O)(O)O
The series is described as above. Format: biochemical, Saccharomyces cerevisiae. The following applies: other: F65L, 30° C., DTNB method, […]-0.15 mM acetyl-CoA.

Substrate in series [9]: O=C(O)[C@@H]1CCN1
As to the kind of experiment: DTNB enzymatic activity (kinetics) of purified wild-type Mpr1. The following applies: other: wild-type, 30° C., DTNB method, 0.5 mM-5 mM AZC. In kind it is biochemical, Saccharomyces cerevisiae.

Substrate in series [10]: O=C(O)[C@@H]1CCN1
Kind of series: DTNB enzymatic activity (kinetics) of purified K63R mutant-type Mpr1. Format: biochemical, Saccharomyces cerevisiae. The conditions noted are these: other: K63R, 30° C., DTNB method, 0.5 mM-5 mM AZC.

Substrate in series [11]: CC(=O)SCCNC(=O)CCNC(=O)[C@H](O)C(C)(C)COP(=O)(O)OP(=O)(O)OC[C@H]1O[C@@H](n2cnc3c(N)ncnc32)[C@H](O)[C@@H]1OP(=O)(O)O
The series is described as above. In kind it is biochemical, Saccharomyces cerevisiae. The following applies: other: K63R, 30° C., DTNB method, […]-0.15 mM acetyl-CoA.

Substrate in series [12]: O=C(O)[C@@H]1CCN1
As to the kind of experiment: DTNB enzymatic activity (kinetics) of purified F65L/L117V mutant-type Mpr1. Format: biochemical, Saccharomyces cerevisiae. The following applies: other: F65L/L117V, 30° C., DTNB method, 0.5 mM-5 mM AZC.

Substrate in series [13]: CC(=O)SCCNC(=O)CCNC(=O)[C@H](O)C(C)(C)COP(=O)(O)OP(=O)(O)OC[C@H]1O[C@@H](n2cnc3c(N)ncnc32)[C@H](O)[C@@H]1OP(=O)(O)O
The description is as above. In kind it is biochemical, Saccharomyces cerevisiae. The following applies: other: F65L/L117V, 30° C., DTNB method, […]-0.15 mM acetyl-CoA.

Substitutions are numbered along the chain they refer to. In names and notes the source's numbering stands.

Take `O=C(O)[C@@H]1CCN1` [AZC, azetidine-2-calboxylate]: the “Km value for AZC, change in words” value in series [1] is “decreased”. Also, the “Km value, change in words” value in [2] is on record as “decreased”.

Consider `CC(=O)SCCNC(=O)CCNC(=O)[C@H](O)C(C)(C)COP(=O)(O)OP(=O)(O)OC[C@H]1O[C@@H](n2cnc3c(N)ncnc32)[C@H](O)[C@@H]1OP(=O)(O)O` [Acetyl-CoA, acetyl-CoA], for which the “Km value for acetyl-CoA, change in words” value in [3] is recorded as “decreased”. Besides, in series [4], the “Vmax (Acetyl-CoA)” value is reported as 64.5 ± 1.29 U/mg and the “kcat (Acetyl-CoA)” value was 31.2 ± 0.63 s⁻¹. Also, in series [2], the “Km value, change in words” value is “decreased”.

B1: Saccharomyces cerevisiae N-acetyltransferase Mpr1 variant L117V (leucine 117 to valine), SEQ ID NO:9 (Saccharomyces cerevisiae; L117V) (protein)
chain: T1 sequence (E9P8D2 1-229 F65L) with L65F, L117V
The Km is the substrate concentration at which the rate is half of its maximum. For orientation: kcat means the number of substrate molecules converted per active site and unit of time at saturation. Usually kcat/Km stands for the second-order rate constant that governs catalysis at low substrate concentration. As to B1, in [5], the Km was found to be 1400 ± 130 µM, the Vmax amounted to 98.5 ± 3.34 U/mg, the kcat was 47.6 ± 1.61 s⁻¹ and the kcat/Km was 32500 ± 2580 M⁻¹ s⁻¹. Besides, in series [6], the Km is listed as 7.63 ± 2.03 ↓ μM, the Vmax is 79.4 ± 1.54 U/mg, the kcat came out at 38.4 ± 0.74 s⁻¹ and the kcat/Km was 5e+06 ± 1.17e+06 M⁻¹ s⁻¹.

B2: Saccharomyces cerevisiae N-acetyltransferase Mpr1 variant F65L (phenylalanine 65 to leucine), SEQ ID NO:8 (Saccharomyces cerevisiae; F65L) (protein)
chain: T1 sequence (E9P8D2 1-229 F65L)
As for B2, in series [7], the Km is 0.7 ± 0.15 ↓ mM, the Vmax stood at 65.0 ± 2.74 U/mg, the kcat is 31.4 ± 1.33 s⁻¹ and the kcat/Km stood at 45500 ± 8630 M⁻¹ s⁻¹. Also, in series [8], the Km is 10.3 ± 1.46 µM, the Vmax is on record as 63.7 ± 3.34 U/mg, the kcat worked out at 30.8 ± 0.61 s⁻¹ and the kcat/Km was 2.9e+06 M⁻¹ s⁻¹.

B3: Saccharomyces cerevisiae N-acetyltransferase Mpr1, wild-type, SEQ ID NO:1 (Saccharomyces cerevisiae) (protein)
chain: T1 sequence (E9P8D2 1-229 F65L) with L65F
In the case of B3, in [9], the Km was 1600 ± 90 µM, the Vmax amounted to 74.76 ± 1.27 U/mg, the kcat worked out at 36.1 ± 1.53 s⁻¹ and the kcat/Km is 22400 M⁻¹ s⁻¹.

B4: Saccharomyces cerevisiae N-acetyltransferase Mpr1 variant K63R (lysine 63 to arginine), SEQ ID NO:7 (Saccharomyces cerevisiae; K63R) (protein)
chain: T1 sequence (E9P8D2 1-229 F65L) with K63R, L65F
With B4, in [10], the Km is on record as 1.2 ± 0.17 ↓ mM, the Vmax was found to be 72 ± 2.98 U/mg, the kcat is 30.6 ± 1.44 s⁻¹ and the kcat/Km was 24800 M⁻¹ s⁻¹. Moreover, in series [11], the Km was 8.0 ± 2.84 ↓ μM, the Vmax is reported as 62.4 ± 1.94 U/mg, the kcat came out at 26.5 ± 0.94 s⁻¹ and the kcat/Km turned out to be 3.3e+06 ± 1.09e+06 M⁻¹ s⁻¹.

B5: Saccharomyces cerevisiae N-acetyltransferase Mpr1 variant F65L/L117V, SEQ ID NO:10 (Saccharomyces cerevisiae; F65L/L117V) (protein)
chain: T1 sequence (E9P8D2 1-229 F65L) with L117V
As for B5, in series [12], the Km came to 1800 ± 190 µM, the Vmax was 79.4 ± 1.05 U/mg, the kcat is 38.4 ± 2.18 s⁻¹ and the kcat/Km turned out to be 21300 M⁻¹ s⁻¹. For the same molecule, in [13], the Km was 13.3 ± 1.67 µM, the Vmax was 64.9 ± 0.36 U/mg, the turnover number (kcat) was determined as 31.4 ± 0.17 s⁻¹ and the kcat/Km amounted to 2.3e+06 M⁻¹ s⁻¹.

For the origin of these results see patent US8101390B2, “Mutant-type acetyltransferase Mpr1” (National University Corporation Nara Institute of Science …, priority 2006, dated 2012).
